Columns and labels:
[1] = target: human IgG (Sigma) (human); experiment: SPR (BIAcore); protein G layer on gold thin film, human IgG 100 ug/ml injected
[2] = target: anti-human Kallikrein 3/PSA antibody (R&D systems); experiment: SPR (BIAcore); protein G layer on gold thin film, anti-PSA antibody 0.5 ug/ml injected

Substance: untagged Streptococcal protein G variant recombinant protein (B1 and B2 domains, not tagged with cysteine) (from UniProt P19909 313-497)
- change in surface plasmon resonance signal [1]: 1000 RU
- change in surface plasmon resonance signal [2]: 114 RU

Reference: patent US20100173430A1
